# Measured values published in patent US20190144544A1 (Eli Lilly, published 2019).
# B1: Antibody A (antibody, human IgG1, lambda, V domains shown)
# VH: QVQLVQSGAEVKKPGSSVKVSCKASGGTFSSYAISWVRQAPGQGLEWMGGIIPIFGTANYAQKFQGRVTITADKSTSTAYMELSSLRSEDTAVYYCARSPDYSPYYYYGMDVWGQGTTVTVSS
# VL: QSVLTQPPSASGTPGQRVTISCSGSSSNIGSNTVNWYQQLPGTAPKLLIYGNSNRPSGVPDRFSGSKSGTSASLAISGLQSEDEADYYCQSYDSSLSGSVFGGGIKLTVLG
# B2: Antibody A-Fab (Fab, V domains shown)
# VH: B1 VH
# VL: B1 VL
# notes: CH1 and the lambda constant domain are not specified for the Fab; also called Fab of Antibody A
# Legend:
# cell surface PD-L1 = cell surface PD-L1 (human, UniProt Q9NZQ7 19-290); test: cell-based or functional assay
# human PD-L1 monomer = molecular target: T1, human PD-L1 monomer (human, UniProt Q9NZQ7 19-238, limits assumed); test: SPR (Biacore T200) at 20, 25, 37 and 42 °C, Fab as analyte over immobilised human PD-L1 monomer; van't Hoff analysis of the association phase
# T1 construct: Amine-coupled to the sensor chip; also called hPD-L1 monomer; hPD-L1
# T1 sequence (Q9NZQ7 19-238 limits assumed): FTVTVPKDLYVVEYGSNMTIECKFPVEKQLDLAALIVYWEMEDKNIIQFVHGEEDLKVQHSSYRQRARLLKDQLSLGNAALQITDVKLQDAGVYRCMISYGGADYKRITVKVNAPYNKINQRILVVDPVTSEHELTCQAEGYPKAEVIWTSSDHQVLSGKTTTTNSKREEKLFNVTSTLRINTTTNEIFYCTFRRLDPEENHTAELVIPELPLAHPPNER
# Procedure: The sample gradients are prepared in the running buffer HBS-EP (0.01M HEPES pH 7.4, 0.15M NaCl, 3 mM EDTA, 0.005% v/v surfactant P20). The binding experiments are repeated at four different temperatures: 20° C., 25° C., 37° C. and 42° C. Throughout the kinetics experiments, the flow rate is maintained at 30 μl/min and the association/contact time at 180 sec for all three Fabs. […] After dissociation, a 0.75 M NaCl, 25 mM NaOH solution regenerates the immobilized hPD-L1, and then the surface is stabilized for 30 sec with the running buffer. […] The binding kinetics are analyzed using the Biacore T200 Evaluation software (Version 3.0). Data is referenced to a blank flow cell, and the data is fitted to the 1:1 Langmuir binding model.
# Steady-state, association, and dissociation are the three binding phases analyzed. MATLAB is utilized for the linear regression analysis.
# Sequence of cell surface PD-L1 (Q9NZQ7 19-290 limits assumed): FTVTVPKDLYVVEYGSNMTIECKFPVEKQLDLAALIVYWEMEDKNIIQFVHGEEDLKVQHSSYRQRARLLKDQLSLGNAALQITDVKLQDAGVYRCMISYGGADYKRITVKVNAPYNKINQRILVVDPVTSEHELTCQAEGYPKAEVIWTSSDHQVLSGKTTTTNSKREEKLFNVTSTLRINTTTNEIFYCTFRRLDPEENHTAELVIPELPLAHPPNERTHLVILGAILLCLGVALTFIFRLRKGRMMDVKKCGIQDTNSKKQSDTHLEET
"IFN-γ secretion fold change vs. IgG control, mixed lymphocyte reaction, 0.01 nM antibody (cell surface PD-L1) [fold]","IFN-γ secretion fold change vs. IgG control, mixed lymphocyte reaction, 0.05 nM antibody (cell surface PD-L1) [fold]","IFN-γ secretion fold change vs. IgG control, mixed lymphocyte reaction, 0.27 nM antibody (cell surface PD-L1) [fold]","IFN-γ secretion fold change vs. IgG control, mixed lymphocyte reaction, 1.3 nM antibody (cell surface PD-L1) [fold]","IFN-γ secretion fold change vs. IgG control, mixed lymphocyte reaction, 6.7 nM antibody (cell surface PD-L1) [fold]","IFN-γ secretion fold change vs. IgG control, mixed lymphocyte reaction, 33.3 nM antibody (cell surface PD-L1) [fold]",ΔSon (human PD-L1 monomer),Binder
1.25,1.95,2.68,4.13,4.11,5.71,–,B1
–,–,–,–,–,–,-26,B2
